# Reference: the nanobody polyreactivity screen of Harvey et al. (2022)
# Assay: yeast display, Sf9 membrane polyspecificity reagent, FACS + sequencing; frameworks hold sequencing errors
# Method in brief: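 Nanobodies from a synthetic yeast display library (Saccharomyces cerevisiae BJ5465), induced 36–48 hours with galactose, were stained 1 hour at 4 °C with 10% biotinylated, detergent-solubilized Sf9 membrane reagent, enriched on streptavidin microbeads, then FACS-sorted. Anti-HA (expression) and streptavidin (reagent binding) fluorescence set low and high (top ~1%) gates. Polyreactivity labels come from the gate of origin. Genes were colony-PCR amplified, MiSeq 2 × 250 sequenced and filtered by CDR length.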
row,Sequence,polyreactivity (PSR sort gate)
1,QVQLVESGGGLVQAGGSLRLSCAASGSIFGYEMGWYRQAPGRERELVAAISFSGVSTYYADSVKGRFTISRDNAKNTVYIQMNSLKQEDTAVYNCNAYSDGDEDYWVQGTQVTVSS,low polyreactivity
2,QVQLVESGGGLVQAGGSLRLSCAASGSIFGYNAMGWYRQAPGKERELVAAISLTTGSTYYADSVKGRFTISRDNAKNTVYLQMNCLNPEDTAVYYCAAVDADYYYWGQGTQVTVSS,high polyreactivity
3,QVQLVESGGGLVQAGGSLRLSCAASGSIFGYNVMGGDRQAPGKEREFVARINYIGSSTYYADSVKGRFTISRDNAKNTVYLQMNSLKPEDTADYYCNADNARGRSGVRRYYWGQGTQVTVSS,high polyreactivity
4,QVQLVESGGGLVQAGGSLRLSCAASGSIFGYVMGWSRQAPGKERELVAAISSGGSTDYADSVKGRFTISRDNAKNTVYLQMNSLKPEDTAVYYCAADTDNGYTYYYWGQGTQVTVSS,low polyreactivity
5,QVQLVESGGGLVQAGGSLRLSCAASGSIFGYYAMGCYRQAPGKERELVAAITNGGSTSYADSVKGRFTISRDNAKNTVDLQMNSLKPEETSVYYCNARFKRLFGRADDYWGQGTQVTVSS,low polyreactivity
6,QVQLVESGGGLVQAGGSLRLSCAASGSIFGYYAMGGYRQAPGKERELVAAISVNGGRTYYADSVKGRFTISRDNAKNTVYLQMNSLKPEDTAVYYCAAELVDYITFRGDYYYWGQGTQVTVSS,high polyreactivity
7,QVQLVESGGGLVQAGGSLRLSCAASGSIFGYYAMGWYRPAPGKERQLVAAIDSRGGSTYYADSVKGRFTISRDYEKNTVYLQMNSLKPEDTAVYYWAARLRYPRRGQGDNYWGQGTQVTVSS,low polyreactivity
8,QVQLVESGGGLVQAGGSLRLSCAASGSIFGYYAMGWYRQAPGKERELVAAIDSGGVSTYYADSVKGRFTISRDIAKNTVYLQMNSLKAEDTAVYYCAKRGPVRKTAYDYWGQGTQVTVSS,low polyreactivity
9,QVQLVESGGGLVQAGGSLRLSCAASGSIFGYYAMGWYRQAPGKERELVAAISRRGGRTYYADSVKGRFTISRDNAKNTVYLQMNSLKPEDTAVYYCAAAVSVSASPYTGFDYWGQGTQVTVSS,high polyreactivity
10,QVQLVESGGGLVQAGGSLRLSCAASGSIFGYYAMGWYRQAPGKERELVAAISYRGGSTYYADSVKGRFTISRDNAKNTVYLQMNSLKPEDTAVYYCNAPFLGAHHYGYEYWGQGTQVTVSS,high polyreactivity
11,QVQLVESGGGLVQAGGSLRLSCAASGSIFGYYAMGWYRQAPGKERELVAAITRGARTYYADSVKGRFTISRDNAKNTVYLQMNSLKPEDTAFYYCNRVPYYEGGNGSWGQGTQVTVSS,high polyreactivity
12,QVQLVESGGGLVQAGGSLRLSCAASGSIFGYYAMGWYRQAPGKERELVASISGSGGTTYYADSVKGRFTISRDNAKNTVYLQMNSLKPEDTAVYYCAARRSMYGYPFVTSRRGYWGHGTQVTVSS,high polyreactivity
13,QVQLVESGGGLVQAGGSLRLSCAASGSIFGYYAMGWYRQAPGKERELVATITWGGGSTYADSVKGRFTISRDNAKNTVYLQMNSLKPEDTAVYYCNAGYRYTSAQVTWEYDYWGQGTQVTVSS,low polyreactivity
14,QVQLVESGGGLVQAGGSLRLSCAASGSIFGYYAMGWYRQAPGTERELVAAITTGGSTSYADSVKGRFTISRDNAKNTVYLQMNSLKPEDTAVYYCAARPHHGWLEYGSAGLGYWGQGTQVTVSS,low polyreactivity
15,QVQLVESGGGLVQAGGSLRLSCAASGSIFGYYAMGWYRQAPGTERELVATITWGGGSTYADSVKGRFTISRDNAKNTVYLQMNSLKPEDTAVYYCNAGYRYTSAQVTWEYDSWGQGTQVTVSS,low polyreactivity
16,QVQLVESGGGLVQAGGSLRLSCAASGSIFGYYAMGWYTLAPGKERELVASISFSGGSTYYADSVKGRFTISRDNAKNTVYLQMNSLKPEDTAVYYCAKRPRFVYWKHGYWGQGTQVTVSS,high polyreactivity
17,QVQLVESGGGLVQAGGSLRLSCAASGSIFGYYAMVWKRQAPGKESELVAAMNYSGVSTYYADSVKGRFTISRDNAKNTVYLQMNSLKPEDSAVYYCARDIRRKGFRYDYWGQGTQVTVSS,high polyreactivity
18,QVQLVESGGGLVQAGGSLRLSCAASGSIFGYYARGWYRQASGKESELVADITSSGSTYYADSVKGRFTISRDNAKNTVYLQMNSLKPEDTAVYYCAADQYFLGSIDGFEYWGQRTQVTVSS,low polyreactivity
19,QVQLVESGGGLVQAGGSLRLSCAASGSIFGYYDMGWYRQAPGKEREFVAASTFRGGRTYYADSVKGRFTISRDNEKNTVYIQMYSLKPEDTAVDFCAAGYHHRWGNYWGQGTQVTVSS,high polyreactivity
20,QVQLVESGGGLVQAGGSLRLSCAASGSIFGYYSMGWYRQAPGKERELVATITWGGGSTYADSVKGRFTISRDNAKNTVYLQMNSLKPEDTAVYYCNAGYRYTSAQVTWEYDYWGQGTQVTVSS,low polyreactivity
21,QVQLVESGGGLVQAGGSLRLSCAASGSIFGYYSMGWYRQATGKERELVATITWGGGSTYADSVKGRFTISRDNAKNTVYLQMNSLKPEDTAVYYCNAGYRYTSAQVTWEYDYWGQGTQVTVSS,low polyreactivity
22,QVQLVESGGGLVQAGGSLRLSCAASGSIFHPYAMGWYRQAPGKERELVAAISSSTGRTYYADSVKGRFTISRDNAKNTVYLQMNSLKPEDTAVYYCAARKKYSEFDYWGQGTQVTVSS,high polyreactivity

row,Sequence,polyreactivity (PSR sort gate)
1,QVQLVESGGGLVQAGGSLRLSCAASGSIFHPYTMGWSRQAPGKERELVAAISWSGGRTYYADSVKGRFTISRDNAKNTVYLQMNSLKPEDTAVYYCAADVTLWYDSWGQGTQVTVSS,low polyreactivity
2,QVQLVESGGGLVQAGGSLRLSCAASGSIFHSYAMGWYRQAPGKEREFVASITQRVGRTNYADSVKGRFTISRDNAKNTVYLQMISLKPEDTAVYYCAASSWRLYYRRDSWGQGTQVTVSS,high polyreactivity
3,QVQLVESGGGLVQAGGSLRLSCAASGSIFHSYAQGWYRQAPGKERELVASITASGDSTYYADSVKGRFTISRDNAKNTVYLQMNSLKPEDTAVYYCNTQAVYGGGEGGYDYWGQGTQVTVSS,low polyreactivity
4,QVQLVESGGGLVQAGGSLRLSCAASGSIFHYYAMGWYRQAPGKERELVAAISWSGGRTNYADSVKGRFTISRDNAKNTVYLQMNSLKPEDTAVYYCAAAERSYSGGGKIGKYYWGQGTQVTVSS,high polyreactivity
5,QVQLVESGGGLVQAGGSLRLSCAASGSIFHYYAMGWYRQAPGKVRELVAAISSVGSTYYADSVKGRFTISRDYAKNTVYLQMNSLKPEDTAVYYCAAEAYAKRYVDRYSWYYYWGQGTQVTVSS,high polyreactivity
6,QVQLVESGGGLVQAGGSLRLSCAASGSIFIANAMGWYRQAPGKERELVAAISSSDSSTYYADSVKGRFTISRDNAKNTVYLQMNSLKPEDTAVYYCAATYWYWYREGYYWGQGTQVTVSS,high polyreactivity
7,QVQLVESGGGLVQAGGSLRLSCAASGSIFIAYTMGWYRQAPGKERELVAAISQSGGGTHYADSVKGRFTISRDNAKNTVYLQMNSLKPEDTAVYYCAADRPATSDYTGYDYWGQGTQVTVSS,low polyreactivity
8,QVQLVESGGGLVQAGGSLRLSCAASGSIFIDNAMGWDRQAPGKEREFVAAISKSGTSTYYADSVKGRFTISRDNAKNTVYLQMNSLKPEDTAVYYCAVRRPRPYSNYYYWGQGTQVTVSS,high polyreactivity
9,QVQLVESGGGLVQAGGSLRLSCAASGSIFIDNAMGWYRQAPGKERELVAAITVRGASTNYADSVKGRFTISRDIAKNTVYLQMNSLKPEDTAVYYCNAVGLRSPWHQDFLIRYDYWGQGTQVTVSS,low polyreactivity
10,QVQLVESGGGLVQAGGSLRLSCAASGSIFIGSVMGWYRQAPGKERELVADITWSGGSTYYADSVKGRFTISRANAKNTVYLQMNSLKPEDTAVYYCAARTFVIGDYDYWYALDSWGQGTQVTVSS,low polyreactivity
11,QVQLVESGGGLVQAGGSLRLSCAASGSIFIGYAMGWYRQAPGKERELVASIRNGGSTNYADSVKGRFTISRDNAKNTVYLQMNSLKPEDTAVYYCAGRYPVFLVSFGFDYWGQGTQVTVSS,low polyreactivity
12,QVQLVESGGGLVQAGGSLRLSCAASGSIFIIYAMGRYRQAPGKERELVAAIRGRGGSTYYADSVKGRFTISRDKAKNTVYLEMNSLNPEDSAVYYCAASVDRGYNYWGEGTQVTVSS,high polyreactivity
13,QVQLVESGGGLVQAGGSLRLSCAASGSIFILYAMGWYRQAPGKERELVAAISSTGTTYYADSVKGRFTISRDNAKNTVYLQMNSLKPEDSAVYYCAADIYPDWIYLLYGYWGQGTQVTVSS,low polyreactivity
14,QVQLVESGGGLVQAGGSLRLSCAASGSIFILYMGWYRQAPGKERELVATISSGGSTNYADSVKGRFTISRDNAKNTVYLQMNSLKPEDTAVYYCNARGSERVDTYSLYDYWGQGTQVTVSS,low polyreactivity
15,QVQLVESGGGLVQAGGSLRLSCAASGSIFIPNAMGWYRQAPGKERELVAAISLSDTTTYYADSVKGRFTISRDNAKNTVYLQMNSLKPEDTAVYYCNKLTYGRVWDHHYDYWGQGTQVTVSS,low polyreactivity
16,QVQLVESGGGLVQAGGSLRLSCAASGSIFIPNAMGWYRQAPGTERELVAAISLSDTTTYYADSVKGRFTISRDNAKNTVYLQMNSLKPEDTAVYYCAADYWFYPTSPDMDYWGQGTQVTVSS,low polyreactivity
17,QVQLVESGGGLVQAGGSLRLSCAASGSIFIPYTMGWYRQEPGKARELVAAITKRGGSTYYADSVKGRFTISRDNAKNSVYLQMNSLKPEDTAVYYCNAIKYDPGRWAEYGYWGQGTQVTVSS,high polyreactivity
18,QVQLVESGGGLVQAGGSLRLSCAASGSIFIQYAMGWYRQAPGKERELVAAINSSGGRTYYADSVKGRFTISRDNAKNTVYLQMNRLKPEDTAVYYCAADHGSSFDWGQGTQVTVSS,low polyreactivity
19,QVQLVESGGGLVQAGGSLRLSCAASGSIFITYAMGWYRQAPGKDRELVATITSRSGGTYYADSVKGRFTISRDNAKNTVYLQMNSLKQEDTAVYYCNAVYTYPVFHGMGYWGQGTQVTVSS,high polyreactivity
20,QVQLVESGGGLVQAGGSLRLSCAASGSIFIVNAMGWYRQAPGKERELVAAITWSGGNTYYADSVKGRFTISRDNAKNTVYLQMNSLKPEDTAVYYCNSYWRGAFDYWGQGTQVTVSS,high polyreactivity
21,QVQLVESGGGLVQAGGSLRLSCAASGSIFIVYAMGWYRQAPGKERELVATITSGGSTNYADSVKGRFTISRDNAKNTVYLQMNSLKPEDTAVYYCAAESYWGSGVVPGYDYWGQGTQVTVSS,low polyreactivity
